Assays:
[1] = molecular target: HLA-DRB5 (DRB5*0101) (human); assay: competition binding
[2] = molecular target: HLA-DR11 (DRB1*1101) (human); assay: competition binding
[3] = molecular target: HLA-DR4 (DRB1*0401) (human); assay: competition binding
[4] = molecular target: HLA-DRB4 (DRB4*0101) (human); assay: competition binding
[5] = molecular target: HLA-DR3 (DRB1*0301) (human); assay: competition binding
[6] = molecular target: HLA-DRB3 (DRB3*0101) (human); assay: competition binding
[7] = molecular target: HLA-DR7 (DRB1*0701) (human); assay: competition binding
[8] = molecular target: HLA-DR15 (DRB1*1501) (human); assay: competition binding
[9] = molecular target: HLA-DR1 (DRB1*0101) (human); assay: competition ELISA, purified HLA II; tracer biotinylated HA 306-318

Substance	IC50 [1] [nM]	IC50 [2] [nM]	IC50 [3] [nM]	IC50 [4] [nM]	IC50 [5] [nM]	IC50 [6] [nM]	IC50 [7] [nM]	IC50 [8] [nM]	IC50 [9] [nM]
9N 1036-1055 (from UniProt P26664 1036-1055)	10	163	60	150	6000	35000	1250	10000	–
28N 1524-1553 (peptide; other documents disagree on this pair)	–	–	–	–	–	–	–	–	2

— US20060110401A1, “Mixture of peptides from c and ns3 proteins of the hepatitis c virus and applications thereof” (priority 2002, published 2006)
